Holding throughout (test): SPR
One experiment deals with T1, cynomolgus GDF-15 (cynomolgus monkey, UniProt G7PWZ3).
T1 chain: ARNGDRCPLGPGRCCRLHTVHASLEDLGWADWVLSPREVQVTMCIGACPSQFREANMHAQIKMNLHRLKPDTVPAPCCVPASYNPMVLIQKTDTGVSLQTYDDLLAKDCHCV

The target in another experiment is T2, human GDF-15 (human, UniProt Q99988).
T2 chain: T1 chain with R6H, H21R, E54A, M63T, N64S, V112I

The next experiment addresses T3, mouse GDF-15 (mouse, UniProt Q9Z0J7).
T3 chain: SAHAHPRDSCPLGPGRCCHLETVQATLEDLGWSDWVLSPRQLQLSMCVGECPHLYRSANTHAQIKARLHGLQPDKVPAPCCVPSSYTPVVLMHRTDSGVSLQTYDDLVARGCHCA

The target in the next experiment is T4, rat GDF-15 (rat, UniProt Q9Z0J6).
T4 chain: T3 chain with A4L, Q63L, K75R, R110Q

Positions count from the first letter of the chain named.

B1: CTL-002 (antibody, V domains shown)
VH: QITLKESGPTLVKPTQTLTLTCTFSGFSLSTSGMGVSWIRQPPGKGLEWLAHIYWDDDKRYNPTLKSRLTITKDPSKNQVVLTMTNMDPVDTATYYCARSSYGAMDYWGQGTLVTVSS
VL: DIVLTQSPSFLSASVGDRVTITCKASQNVGTNVAWFQQKPGKSPKALIYSASYRYSGVPDRFTGSGSGTEFTLTISSLQPEDFAAYFCQQYNNFPYTFGGGTKLEIKR
Consider B1, for which the Kd in the experiment with cynomolgus GDF-15 came out at 0.108 nM; with human GDF-15 it was 0.0383 nM; with mouse GDF-15, 9.76 nM; in the experiment with rat GDF-15, 0.449 nM.

These data come from patent US20240043517 (published 2024).
